Results on three molecules are retold here after patent US20020157126A1 (published 2002).

Assay [1] deals with T1, myostatin mature C-terminal dimer (purified from conditioned medium of CHO cells) (UniProt O08689 268-376, limits assumed, radio-iodinated (chloramine T method) when used as the labeled ligand).
T1 construct: mature; also called GDF-8; mature C-terminal peptide
T1 sequence (looked up): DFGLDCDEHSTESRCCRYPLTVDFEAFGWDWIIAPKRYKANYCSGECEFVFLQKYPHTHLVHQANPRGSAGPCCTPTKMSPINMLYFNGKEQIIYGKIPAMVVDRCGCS
Put plainly: inhibition of labeled myostatin binding to Act RIIB-transfected COS-7 cells, 4 °C; reference is the Ki of follistatin.

Assay [2] concerns the target GDF-8 receptor (cell surface binding proteins) on L6 myoblasts. Put plainly: receptor-ligand binding assay with I-125 labeled GDF-8 on myoblast cells.
The target of assay [3] is T1, myostatin mature C-terminal dimer …. The experiment in a line: inhibition of labeled myostatin binding to Act RIIB-transfected COS-7 cells, 4 °C. As to the method:
Receptor binding. Purified myostatin was radioiodinated using the chloramine T method (Frolik, C. A., Wakefield, L. M., Smith, D. M. & Sporn, M. B. (1984) J Biol Chem 259, 10995-11000). COS-7 cells grown in 6 or 12 well plates were transfected with 1-2 μg pCMV5 or pCMV5/receptor construct using lipofectamine (Gibco, Rockville, Md.). Crosslinking experiments were carried out 2 days post transfection as described (Franzén, P., ten Dijke, P., Ichijo, H., Yamashita, H., Schultz, P., Heldin, C.-H. & Miyazono, K. (1993) Cell 75, 681-692). For quantitative receptor binding assays, cell monolayers were washed twice with PBS containing 1 mg/ml BSA and incubated with labeled myostatin in the presence or absence of various concentrations of unlabeled myostatin, pro peptide, or follistatin at 4° C. Cells were then washed 3 times with the same buffer, lysed in 0.5N NaOH, and counted in a gamma counter. Specific binding was calculated as the difference in bound myostatin between cells transfected with Act RIIB and cells transfected with vector.
The effect of the pro peptide and follistatin in vitro was then studied. Both the myostatin pro peptide and follistatin were capable of blocking the binding of the C-terminal dimer to Act RIIB. […]

The molecule “myostatin prodomain peptide (purified from CHO cell conditioned medium, HPLC fractions 35-37) (from UniProt O08689 25-267)” showed a fold Ki relative to follistatin in assay [1] of 50 fold.

The Kd is the concentration at which binding is half-saturated. Read a low Kd as a tighter complex. Consider “recombinant human GDF-8 (rhGDF-8) homodimer (from UniProt O14793 267-374) (ligand)”, for which the Kd in assay [2] was 370 pM.

B1: follistatin (other, UniProt P19883-2 30-317, looked up)
chain: GNCWLRQAKNGRCQVLYKTELSKEECCSTGRLSTSWTEEDVNDNTLFKWMIFNGGAPNCIPCKETCENVDCGPGKKCRMNKKNKPRCVCAPDCSNITWKGPVCGLDGKTYRNECALLKARCKEQPELEVQYQGRCKKTCRDVFCPGSSTCVVDQTNNAYCVTCNRICPEPASSEQYLCGNDGVTYSSACHLRKATCLLGRSIGLAYEGKCIKAKSCEDIQCTGGKKCLWDFKVGRGRCSLCDELCPDSKSDEPVCASDNATYASECAMKEAACSSGVLLEVKHSGSCN
The Ki is the equilibrium dissociation constant of an inhibitor or competing ligand from its target. Low values mean higher affinity, high ones lower affinity. For B1, the inhibitory constant (Ki) in assay [3] is approximately 470 pM.
